Laboratory results from patent US20160215035A1.
Like-named read-outs stand apart in the source and are kept apart here. Each block holds one molecule with its values, some of them ahead of it.

Tests used:
Assay in all cases: cell-based or functional assay
IL-4Rα [1] = target: IL-4Rα (UniProt P24394)
Type I IL-4R = Type I IL-4R (UniProt P24394)
IL-4Rα [2] = target: IL-4Rα (UniProt P24394); remark: listed apart in the source

UniProt P24394, sequence (P24394 26-825 limits assumed): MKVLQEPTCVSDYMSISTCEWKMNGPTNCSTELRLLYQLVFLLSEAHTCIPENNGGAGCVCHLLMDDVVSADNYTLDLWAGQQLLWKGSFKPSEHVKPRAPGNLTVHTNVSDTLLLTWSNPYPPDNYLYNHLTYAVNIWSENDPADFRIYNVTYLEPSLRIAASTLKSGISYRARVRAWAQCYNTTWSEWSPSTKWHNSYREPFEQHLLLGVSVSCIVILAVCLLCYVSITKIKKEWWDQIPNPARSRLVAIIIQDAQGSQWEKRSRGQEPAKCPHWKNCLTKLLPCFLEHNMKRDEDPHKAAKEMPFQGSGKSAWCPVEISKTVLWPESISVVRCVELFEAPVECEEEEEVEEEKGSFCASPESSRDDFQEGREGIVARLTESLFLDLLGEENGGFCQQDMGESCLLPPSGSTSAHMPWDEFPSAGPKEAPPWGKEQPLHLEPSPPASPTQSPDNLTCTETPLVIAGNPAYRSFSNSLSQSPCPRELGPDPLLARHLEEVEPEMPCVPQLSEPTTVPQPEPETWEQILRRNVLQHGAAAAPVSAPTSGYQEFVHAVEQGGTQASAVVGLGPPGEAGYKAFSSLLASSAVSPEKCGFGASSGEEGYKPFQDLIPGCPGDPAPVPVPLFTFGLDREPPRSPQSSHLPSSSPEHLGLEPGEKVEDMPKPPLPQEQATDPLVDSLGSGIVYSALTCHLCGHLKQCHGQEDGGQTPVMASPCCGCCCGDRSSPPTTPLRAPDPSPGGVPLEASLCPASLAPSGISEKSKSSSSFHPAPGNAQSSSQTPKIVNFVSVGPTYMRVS

Molecule: cpIL4-PE (from UniProt P11439 278-633)
IC50 (ng/mL), cell count by trypan blue exclusion, KCCL871 cells (IL-4Rα [1]): 1.5 ng/mL
IC50 (ng/mL), cell count by trypan blue exclusion, KCCOR891 cells (IL-4Rα [1]): 9 ng/mL
IC50 (ng/mL), cell count by trypan blue exclusion, KCCTCM901 cells (IL-4Rα [1]): 0.7 ng/mL
IC50 (ng/mL), cell count by trypan blue exclusion, YCUM862 cells (IL-4Rα [1]): 0.6 ng/mL
IC50 (ng/mL), cell count by trypan blue exclusion, YCUM911 cells (IL-4Rα [1]): 4.5 ng/mL
IC50 (ng/mL), cell count by trypan blue exclusion, YCUT891 cells (IL-4Rα [1]): 8 ng/mL
IC50, inhibition of [3H]-thymidine incorporation in HH cells (48 h) (Type I IL-4R): 362 ng/mL

IC50 (ng/mL), cell count by trypan blue exclusion, KCCL871 cells (IL-4Rα [2]): 0.5 ng/mL
IC50 (ng/mL), cell count by trypan blue exclusion, KCCOR891 cells (IL-4Rα [2]): 0.15 ng/mL
IC50 (ng/mL), cell count by trypan blue exclusion, KCCTCM901 cells (IL-4Rα [2]): 1 ng/mL
IC50 (ng/mL), cell count by trypan blue exclusion, YCUM862 cells (IL-4Rα [2]): 1.1 ng/mL
IC50 (ng/mL), cell count by trypan blue exclusion, YCUM911 cells (IL-4Rα [2]): 0.2 ng/mL
IC50 (ng/mL), cell count by trypan blue exclusion, YCUT891 cells (IL-4Rα [2]): 11 ng/mL
IC50, colony formation assay on U 251 cells (10 days) (IL-4Rα [2]): 5 ng/mL
B1: cpIL-4BAD fusion protein (protein)
chain: MDTTEKETFCRAATVLRQFYSHHEKDTRCLGATAQQFHRHKQLIRFLKRLDRNLWGLAGLNSCPVKEANQSTLENFLERLKTIMREKYSKCSSGGNGGHKCDITLQEIIKTLNSLTEQKTLCTELTVTDIFAASGSFQIPEFEPSEQEDSSSAERGLGPSPAGDGPSGSGKHHRQAPGLLWDASHQQEQPTSSSHHGGAGAVEIRSRHSAYPAGTEDDEGMGEEPSPFRGRSRAAPPNLWAAQRYGRELRRMSDEFVDSFKKGLPRPKSAGTATQMRQSSSWTRVFQSWWDRNLGRGSSAPSQ
IC50, 5-day cell viability assay on Daudi cells, with 100x excess IL-4 (IL-4Rα [2]): > 1000 ng/mL
IC50, 5-day cell viability assay on Daudi cells, without excess IL-4 (IL-4Rα [2]): 0.3 ng/mL
IC50, 5-day cell viability assay on U 251 cells, with 100x excess IL-4 (IL-4Rα [2]): > 1000 ng/mL
IC50, 5-day cell viability assay on U 251 cells, without excess IL-4 (IL-4Rα [2]): 0.3 ng/mL
IC50, killing of Daudi cells (viable cell count, trypan blue exclusion, 5 days) (IL-4Rα [2]): 0.1 ng/mL
IC50, killing of U 251 cells (viable cell count, trypan blue exclusion, 5 days) (IL-4Rα [2]): 0.6 ng/mL
